Source: patent US20230279138A1 (CHIA TAI TIANQING PHARMACEUTICAL GROUP, published 2023)
Where a chain is given by its changes, count along the chain named. Names and notes keep the numbering of the source. Blank lines part the entries; values can stand above or below the binder they belong to.

Columns and labels:
[1] = target: T1, CD20 on Raji cells (CD20+/CD3- cells) (human, UniProt P11836 1-297); test: flow cytometry on Raji cells (CD20+/CD3-)
T1 construct: whole, on cells; Raji, Ramos and NAMALWA in the killing assays; also called Ramos; NAMALWA
T1 sequence (looked up): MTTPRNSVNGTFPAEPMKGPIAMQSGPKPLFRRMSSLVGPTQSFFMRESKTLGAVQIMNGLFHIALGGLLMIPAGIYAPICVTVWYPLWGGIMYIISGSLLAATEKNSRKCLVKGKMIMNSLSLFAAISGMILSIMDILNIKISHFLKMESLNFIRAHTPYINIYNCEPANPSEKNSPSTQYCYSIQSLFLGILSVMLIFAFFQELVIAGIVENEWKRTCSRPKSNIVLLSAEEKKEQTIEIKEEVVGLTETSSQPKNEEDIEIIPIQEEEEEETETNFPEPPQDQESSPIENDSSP
Description: (§1) After incubation, the cells were washed twice with cold 1% BSA/1×PBS. […] After being washed twice, the geometric mean fluorescence (MFI) of the stained cells was measured using a FACS Canto II […] (BD Biosciences). Wells containing no antibody or containing only fluorescent secondary antibody were used to establish background fluorescence. The EC50 values for cell binding were determined using GraphPad Prism 5 software (GraphPad Software, La Jolla, Calif.); each value was calculated by four-parameter non-linear regression analysis.

[2] = target: T2, CD3 on Jurkat cells (CD3+/CD20- cells) (human, UniProt P07766 23-207; P04234 22-171; P09693 23-182); test: flow cytometry on Jurkat 2B8 cells (CD3+/CD20-)
T2 construct: whole, on cells; also called Jurkat 2B8
Description: as §1

T2 sequence (P07766 23-207, chain 1 of 3): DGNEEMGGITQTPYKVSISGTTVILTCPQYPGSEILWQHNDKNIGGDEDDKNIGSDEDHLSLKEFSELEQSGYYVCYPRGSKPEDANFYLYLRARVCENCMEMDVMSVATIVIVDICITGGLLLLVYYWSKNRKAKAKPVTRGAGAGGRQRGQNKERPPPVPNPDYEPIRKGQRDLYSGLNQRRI
T2 sequence (P04234 22-171, chain 2 of 3): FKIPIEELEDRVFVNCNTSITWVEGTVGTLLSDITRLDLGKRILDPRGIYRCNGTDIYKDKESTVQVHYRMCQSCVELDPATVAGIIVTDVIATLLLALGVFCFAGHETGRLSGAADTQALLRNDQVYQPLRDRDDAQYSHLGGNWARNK
T2 sequence (P09693 23-182, chain 3 of 3): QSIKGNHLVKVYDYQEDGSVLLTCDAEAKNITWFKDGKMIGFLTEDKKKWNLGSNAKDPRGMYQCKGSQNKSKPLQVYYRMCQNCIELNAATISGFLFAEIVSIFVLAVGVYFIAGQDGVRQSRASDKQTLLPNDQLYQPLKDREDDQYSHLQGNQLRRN

B2: Anti-CD3 Fab (T2) (Fab, V domains shown)
VH: QVQLVQSGAEVKKPGSSVKVSCKASGYSFTTYYIHWVRQAPGQGLEWMGWIFPGNDNIKYSEKFKGRVTITADKSTSTAYMELSSLRSEDTAVYYCAIDSVSIYYFDYWGQGTLVTVSS
VL: DIVMTQSPDSLAVSLGERATINCKSSQSLLNSRTRKNYLAWYQQKPGQPPKLLIYWASTRKSGVPDRFSGSGSGTDFTLTISSLQAEDVAVYYCTQSFILRTFGGGTKVEIK
notes: Parental antibody tested as a Fab; The variable domains are tied to it through the clone naming: T2 is the anti-CD3 portion of W3278-T2U3 and W3278-U3T2; also called parental anti-CD3 antibody T2
EC50 [2]: 0.033 µM
TOP MFI [2]: 3210 MFI

B4: W3278-T2U3.E17R-1.uIgG4.SP (bispecific antibody)
heavy 1: QVQLVQSGAEVKKPGSSVKVSCKASGYSFTTYYIHWVRQAPGQGLEWMGWIFPGNDNIKYSEKFKGRVTITADKSTSTAYMELSSLRSEDTAVYYCAIDSVSIYYFDYWGQGTLVTVSSASTKGPSVFPLAPCSRSTSESTAALGCLVKDYFPEPVTVSWNSGALTSGVHTFPAVLQSSGLYSLSSVVTVPSSSLGTKTYTCNVDHKPSNTKVDKRVESKYGPPCPPCPAPEFLGGPSVFLFPPKPKDTLMISRTPEVTCVVVDVSQEDPEVQFNWYVDGVEVHNAKTKPREEQFNSTYRVVSVLTVLHQDWLNGKEYKCKVSNKGLPSSIEKTISKAKGQPREPQVYTLPPCQEEMTKNQVSLWCLVKGFYPSDIAVEWESNGQPENNYKTTPPVLDSDGSFFLYSRLTVDKSRWQEGNVFSCSVMHEALHNHYTQKSLSLSLG
heavy 2: EVQLVESGGGLVQPGRSLRLSCAASGFTFNDYAMHWVRQAPGKGLEWVSTISWNSGSIGYADSVKGRFTISRDNAKKSLYLQMNSLRAEDTALYYCAKDIQYGNYYYGMDVWGQGTTVTVLEDLKNVFPPEVAVFEPSEAEISHTQKATLVCLATGFYPDHVELSWWVNGKEVHSGVCTDPQPLKEQPALQDSRYALSSRLRVSATFWQNPRNHFRCQVQFYGLSENDEWTQDRAKPVTQIVSAEAWGRYGPPCPPCPAPEFLGGPSVFLFPPKPKDTLMISRTPEVTCVVVDVSQEDPEVQFNWYVDGVEVHNAKTKPREEQFNSTYRVVSVLTVLHQDWLNGKEYKCKVSNKGLPSSIEKTISKAKGQPREPQVCTLPPSQEEMTKNQVSLSCAVKGFYPSDIAVEWESNGQPENNYKTTPPVLDSDGSFFLVSRLTVDKSRWQEGNVFSCSVMHEALHNHYTQKSLSLSLG
light 1: not shown
light 2: EIVLTQSPATLSLSPGERATLSCRASQSVSSYLAWYQQKPGQAPRLLIYDASNRATGIPARFSGSGSGTDFTLTISSLEPEDFAVYYCQQRSNWPITFGQGTRLEIKPDIQNPDPAVYQLRDSKSSDKSVCLFTDFDSQTQVSQSKDSDVYITDKCVLDMRSMDFKSNSAVAWSQKSDFACANAFQNSIIPEDTFFPSPESS
notes: Human IgG4 with S228P, knobs-into-holes; WuXiBody format, in which one arm carries TCR constant domains; also called W3278 BsAb; WBP3278 BsAb
EC50 [1]: 0.0132 µM
TOP MFI [1]: 68500 MFI
EC50 [2]: 0.129 µM
TOP MFI [2]: 3880 MFI

The remaining lines, values ahead:

EC50 [1]: 0.0114 µM
TOP MFI [1]: 53500 MFI
B1: Anti-CD20. IgG4 (U2) (antibody, V domains shown)
VH: QVQLQQPGAELVKPGASVKMSCKASGYTFTSYNMHWVKQTPGRGLEWIGAIYPGNGDTSYNQKFKGKATLTADKSSSTAYMQLSSLTSEDSAVYYCARSTYYGGDWYFNVWGAGTTVTVSA
VL: QIVLSQSPAILSASPGEKVTMTCRASSSVSYIHWFQQKPGSSPKPWIYATSNLASGVPVRFSGSGSGTSYSLTISRVEAEDAATYYCQQWTSNPPTFGGGTKLEIK
notes: Tested as IgG4; also called parental anti-CD20 antibody U2

EC50 [2]: 0.0437 µM
TOP MFI [2]: 3800 MFI
B3: Anti-CD3 Fab (T3) (Fab, V domains shown)
VH: QVQLVQSGAEVKKPGSSVKVSCKASGFAFTDYYIHWVRQAPGQGLEWMGWISPGNVNTKYNENFKGRVTITADKSTSTAYMELSSLRSEDTAVYYCARDGYSLYYFDYWGQGTLVTVSS
VL: B2 VL with K61Q, F98H, I99T
notes: Parental antibody tested as a Fab; The variable domains are tied to it through the clone naming: T3 is the anti-CD3 portion of W3278-T3U2 and W3278-U2T3; also called parental anti-CD3 antibody T3
